Source: US20250057968A1, “ANTI-DLL3 ANTIBODY AND PHARMACEUTICAL USE THEREOF, AND ANTIBODY-DRUG CONJUGATE CONTAINING ANTI-DLL3 ANTIBODY” (Jiangsu Hengrui Pharmaceuticals Co., Ltd., priority 2021, published 2025)

T1: Human DLL3 full-length protein on cells (human, UniProt Q9NYJ7 27-618)
T1 construct: H1184 and DMS53 express DLL3 themselves; The cell line is named under assay; also called H1184 cells; DLL3/H82
T1 sequence: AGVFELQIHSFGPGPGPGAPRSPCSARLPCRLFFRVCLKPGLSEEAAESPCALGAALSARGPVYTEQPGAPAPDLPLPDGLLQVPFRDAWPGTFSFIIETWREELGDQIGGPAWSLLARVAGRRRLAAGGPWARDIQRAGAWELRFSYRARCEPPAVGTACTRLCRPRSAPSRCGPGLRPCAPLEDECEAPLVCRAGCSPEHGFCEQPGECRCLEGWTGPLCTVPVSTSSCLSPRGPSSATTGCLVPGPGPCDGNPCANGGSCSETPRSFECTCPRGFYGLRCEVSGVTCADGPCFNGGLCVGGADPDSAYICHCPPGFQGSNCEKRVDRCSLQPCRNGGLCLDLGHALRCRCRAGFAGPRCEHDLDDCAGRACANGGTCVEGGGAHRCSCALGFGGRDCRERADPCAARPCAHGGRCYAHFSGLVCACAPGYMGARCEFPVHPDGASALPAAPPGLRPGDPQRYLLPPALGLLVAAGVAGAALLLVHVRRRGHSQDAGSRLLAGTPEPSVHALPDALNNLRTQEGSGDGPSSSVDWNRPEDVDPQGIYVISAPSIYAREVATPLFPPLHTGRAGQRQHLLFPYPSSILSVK

T2: mouse DLL3 (KACTUS, DLL-MM103) (mouse, UniProt O88516 33-490, limits assumed)
T2 construct: bought antigen of the Biacore assay; construct not described
T2 sequence (looked up): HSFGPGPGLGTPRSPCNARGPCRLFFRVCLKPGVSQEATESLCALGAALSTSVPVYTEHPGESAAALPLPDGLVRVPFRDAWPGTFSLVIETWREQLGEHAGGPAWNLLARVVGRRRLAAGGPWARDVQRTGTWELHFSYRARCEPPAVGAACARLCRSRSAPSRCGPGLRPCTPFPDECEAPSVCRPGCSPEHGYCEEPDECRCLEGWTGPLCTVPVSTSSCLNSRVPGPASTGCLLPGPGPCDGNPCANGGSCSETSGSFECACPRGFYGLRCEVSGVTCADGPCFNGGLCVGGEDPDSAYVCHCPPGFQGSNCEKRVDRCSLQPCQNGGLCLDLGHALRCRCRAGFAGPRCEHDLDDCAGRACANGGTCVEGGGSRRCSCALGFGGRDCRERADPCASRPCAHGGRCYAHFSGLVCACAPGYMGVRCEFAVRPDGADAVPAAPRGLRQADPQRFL

T3: human DLL3 (ACRO, DLL3-H52H4) (human, UniProt Q9NYJ7 27-479)
T3 construct: bought antigen of the Biacore assay; construct not described
T3 sequence (looked up): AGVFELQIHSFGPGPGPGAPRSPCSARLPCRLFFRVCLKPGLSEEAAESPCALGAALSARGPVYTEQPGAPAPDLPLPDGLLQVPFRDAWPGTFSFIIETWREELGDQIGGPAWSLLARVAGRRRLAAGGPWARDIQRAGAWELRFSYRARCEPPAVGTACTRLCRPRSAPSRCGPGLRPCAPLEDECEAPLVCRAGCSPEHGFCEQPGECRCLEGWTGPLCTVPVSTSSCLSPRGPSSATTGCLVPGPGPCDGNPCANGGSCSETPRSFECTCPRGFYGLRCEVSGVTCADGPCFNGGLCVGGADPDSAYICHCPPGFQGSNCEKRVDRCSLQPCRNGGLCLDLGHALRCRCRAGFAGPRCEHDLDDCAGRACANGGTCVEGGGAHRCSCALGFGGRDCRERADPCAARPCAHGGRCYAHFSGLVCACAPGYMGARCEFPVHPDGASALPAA


Experiments:
[1] = biological target: T1, Human DLL3 full-length protein on cells; test: FACS on H1184 cells
Method: (§1) Cells of the DLL3-expressing small cell lung cancer cell lines H1184 (ATCC, Cat. No. CRL-5858), DLL3/H82, cynoDLL3/CHO-s, and RatDLL3/CHO-s were suspended at 1×10^6/mL in FACS buffer (1% BSA+pH 7.4 PBS), and the cell suspensions were added to a 96-well round-bottom plate (Corning, 3795) at 100 μL/well. The plate was centrifuged at 300 g for 5 min, and the supernatant was removed. Different concentrations of test antibodies were added at 100 μL/well. The plate was incubated in the dark in a refrigerator at 4° C. for 1 h. After 3 washes by centrifugation at 300 g, working concentrations of APC anti-human IgG Fc (BioLegend, 410712) or PE F(ab′)2-goat anti-human IgG (invitrogen, H10104) were added. The plate was incubated in the dark in a refrigerator at 4° C. for 40 min. After 3 washes by centrifugation at 300 g, the geometric mean fluorescence intensity was measured on an Invitrogen flow cytometer, and the EC50 values of the antibodies in binding to DLL3-expressing cells were calculated.

[2] = biological target: T1, Human DLL3 full-length protein on cells; test: cell-based or functional assay
[3] = biological target: T2, mouse DLL3 (KACTUS, DLL-MM103); test: SPR (Biacore 8K), antibody captured on Protein A chip, 1:1 fit
From the text: (§2) Test antibodies were affinity-captured with a Protein A biosensor chip (Cat. #29127556, Cytiva) for 18 seconds, and then the antigens human DLL3 (ACRO, DLL3-H52H4), cynomolgus monkey DLL3 (KACTUS, DLL-RM103), and mouse DLL3 (KACTUS, DLL-MM103) were allowed to flow over the surface of the chip for 180 seconds, followed by 600 seconds of dissociation. Reaction signals were detected in real time using a Biacore 8K (Cytiva) instrument to obtain association and dissociation curves. After the dissociation in each experimental cycle, the biosensor chip was washed and regenerated with a 10 mM glycine-hydrochloric acid solution (pH 1.5) (Cat. #BR-1003-54, Cytiva). A 1:1 model was fit to the data. The results are shown in Table 12-1, Table 12-2, and Table 12-3.

[4] = biological target: T1, Human DLL3 full-length protein on cells; test: FACS on DLL3/H82 cells
Method: as §1

[5] = biological target: T2, mouse DLL3 (KACTUS, DLL-MM103); test: SPR (Biacore 8K), antibody captured on Protein A chip
From the text: as §2

[6] = biological target: T3, human DLL3 (ACRO, DLL3-H52H4); test: SPR (Biacore 8K), antibody captured on Protein A chip, 1:1 fit
From the text: as §2

Row | Binder | EC50 [1] [pM] | Emax [1] | IC50 (nM), cell killing caused by endocytosis of antibodies (DT3C, DMS53/DLL3 cells) [2] [nM] | Imax, cell killing caused by endocytosis of antibodies (DT3C, DMS53/DLL3 cells) [2] | Kd [3] [pM] | EC50 [4] [pM] | Emax [4] | binding result [5] | Kd [6] [pM] | koff [6] [s⁻¹] | kon [6] [M⁻¹ s⁻¹]
1 | Hu6 (antibody, human IgG1, kappa, V domains shown, also called hAb6L4H12) VH: EVQLVQSGSELKKPGASVKVSCKASGYTFTDYYMNWVRQAPGQGLEWMGIINPYSGVTIYNHKFKGRFALSVDKSSNTAYLQISSLKAEDTAVYYCARQDSLLDYAMDYWGQGTTVTVSS VL: DIQMTQSPSSLSASVGDRVTITCHASQGISGNMGWLQQKPGKAPKGLIYHGANLEDGVPSRFSGSGSGADYTLTISSLQPEDFADYYCVQYAQFPYTFGGGTKVEIKR | 60 | 2070 | 0.56 | 87.2 | 6520 |  |  |  |  |  | 
2 | Hu100 (antibody, human IgG1, kappa, V domains shown, also called hAb100L1H1) VH: EVQLVESGGGLVKPGGSLRLSCAASGFTFSDSGMHWIRQAPGKGLEWVSYISSGSSTIHYADTVKGRFTISRDNAKNSLYLQMNSLRAEDTAVYYCASPLYYYGRSYNAVAYWGQGTTVTVSS VL: DIQMTQSPSSLSASVGDRVTITCHASQNINVWLSWYQQKPGKVPKLLIYKASDLHTGVPSRFSGSGSGTDFTLTISSLQPEDVATYYCQQGQSYPLTFGGGTKVEIKR | 150 | 2110 | 1.47 | 86.1 |  | 240 | 14300 | no binding | 436 | 0.000374 | 858000
